Measurements from patent US20240139329A1 (CALIFORNIA INSTITUTE OF TECHNOLOGY, published 2024).
Numbering of substitutions follows the chain as printed.

T1: human interleukin 3 (IL3), expressed on microarray cells (human, UniProt P08700 20-152)
T1 construct: also called hIL3
T1 sequence: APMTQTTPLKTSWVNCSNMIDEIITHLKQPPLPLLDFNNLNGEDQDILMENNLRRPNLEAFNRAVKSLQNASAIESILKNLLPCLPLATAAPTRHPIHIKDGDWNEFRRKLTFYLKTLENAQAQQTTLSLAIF

T2: Mouse SCA1 (LY6A), on cells (mouse, UniProt P05533 27-112)
T2 construct: whole, on cells; also called mouse LY6A
T2 sequence: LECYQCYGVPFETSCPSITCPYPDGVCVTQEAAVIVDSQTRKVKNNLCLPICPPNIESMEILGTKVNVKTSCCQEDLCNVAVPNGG

T3: mouse LRP6-E1E2 (N-half, AA 20-628) tagged with Fc (mouse IgG2a) (mouse, UniProt O88572 20-628)
T3 construct: not shown: mouse IgG2a Fc
T3 sequence: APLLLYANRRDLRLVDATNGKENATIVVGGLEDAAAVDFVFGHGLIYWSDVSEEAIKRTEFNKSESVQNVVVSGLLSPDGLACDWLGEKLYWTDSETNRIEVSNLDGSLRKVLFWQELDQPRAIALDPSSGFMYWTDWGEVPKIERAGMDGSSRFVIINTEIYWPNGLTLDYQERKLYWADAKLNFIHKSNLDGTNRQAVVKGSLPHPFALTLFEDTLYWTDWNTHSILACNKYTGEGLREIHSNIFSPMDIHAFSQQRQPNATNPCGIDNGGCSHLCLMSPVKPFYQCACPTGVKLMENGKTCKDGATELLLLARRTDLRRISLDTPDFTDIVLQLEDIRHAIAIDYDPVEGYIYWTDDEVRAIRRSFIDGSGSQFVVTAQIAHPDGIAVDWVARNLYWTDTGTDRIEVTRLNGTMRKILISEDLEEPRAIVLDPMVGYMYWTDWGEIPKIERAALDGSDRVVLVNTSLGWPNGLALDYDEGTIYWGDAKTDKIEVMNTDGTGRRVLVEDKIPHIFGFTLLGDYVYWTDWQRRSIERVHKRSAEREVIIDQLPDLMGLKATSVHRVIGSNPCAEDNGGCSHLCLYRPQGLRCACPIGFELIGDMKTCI

T4: mouse LRP6-E3E4 (C-half, AA 629-1244) tagged with Fc (mouse IgG2a) (mouse, UniProt O88572 629-1244)
T4 construct: not shown: mouse IgG2a Fc
T4 sequence: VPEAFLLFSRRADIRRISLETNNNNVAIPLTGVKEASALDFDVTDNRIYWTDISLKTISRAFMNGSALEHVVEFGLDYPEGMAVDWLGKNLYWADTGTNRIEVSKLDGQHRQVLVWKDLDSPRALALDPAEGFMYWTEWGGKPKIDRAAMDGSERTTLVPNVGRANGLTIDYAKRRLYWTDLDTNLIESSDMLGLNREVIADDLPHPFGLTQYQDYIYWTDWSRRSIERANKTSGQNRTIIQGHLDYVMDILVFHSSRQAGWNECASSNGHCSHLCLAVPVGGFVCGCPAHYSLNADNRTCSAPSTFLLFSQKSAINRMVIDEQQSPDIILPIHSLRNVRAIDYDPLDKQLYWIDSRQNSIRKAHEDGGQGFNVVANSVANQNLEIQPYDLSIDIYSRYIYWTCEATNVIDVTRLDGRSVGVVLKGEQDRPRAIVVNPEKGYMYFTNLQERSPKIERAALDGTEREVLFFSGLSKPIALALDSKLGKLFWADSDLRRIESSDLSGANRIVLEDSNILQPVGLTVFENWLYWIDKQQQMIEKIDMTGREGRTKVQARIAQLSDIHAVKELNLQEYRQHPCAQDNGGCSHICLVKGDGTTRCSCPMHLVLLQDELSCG

B1: AAV-MaCPNS1 (other)
chain: MAADGYLPDWLEDNLSEGIREWWALKPGAPQPKANQQHQDNARGLVLPGYKYLGPGNGLDKGEPVNAADAAALEHDKAYDQQLKAGDNPYLKYNHADAEFQERLKEDTSFGGNLGRAVFQAKKRLLEPLGLVEEAAKTAPGKKRPVEQSPQEPDSSAGIGKSGAQPAKKRLNFGQTGDTESVPDPQPIGEPPAAPSGVGSLTMASGGGAPVADNNEGADGVGSSSGNWHCDSQWLGDRVITTSTRTWALPTYNNHLYKQISNSTSGGSSNDNAYFGYSTPWGYFDFNRFHCHFSPRDWQRLINNNWGFRPKRLNFKLFNIQVKEVTDNNGVKTIANNLTSTVQVFTDSDYQLPYVLGSAHEGCLPPFPADVFMIPQYGYLTLNDGSQAVGRSSFYCLEYFPSQMLRTGNNFQFSYEFENVPFHSSYAHSQSLDRLMNPLIDQYLYYLSRTINGSGQNQQTLKFSVAGPSNMAVQGRNYIPGPSYRQQRVSTTVTQNNNSEFAWPGASSWALNGRNSLMNPGPAMASHKEGEDRFFPLSGSLIFGKQGTGRDNVDADKVMITNEEEIKTTNPVATESYGQVATNHQSAQPHEGSSRAQAQTGWVQNQGILPGMVWQDRDVYLQGPIWAKIPHTDGNFHPSPLMGGFGMKHPPPQILIKNTPVPADPPTAFNKDKLNSFITQYSTGQVSVEIEWELQKENSKRWNPEIQYTSNYYKSNNVEFAVNTEGVYSEPRPIGTRYLTRNL
B2: AAV-MaCPNS2 (other)
chain: B1 chain with H590N, E591A, G592S, S593V, S594N, R595S
notes: also called AAV-MacCPNS2
B3: AAV-BI30 (other)
chain: B1 chain with P589N, H590N, E591S, G592T, S593R, S594G, R595G
B4: AAV.CAP-B22 (other)
chain: MAADGYLPDWLEDNLSEGIREWWALKPGAPQPKANQQHQDNARGLVLPGYKYLGPGNGLDKGEPVNAADAAALEHDKAYDQQLKAGDNPYLKYNHADAEFQERLKEDTSFGGNLGRAVFQAKKRLLEPLGLVEEAAKTAPGKKRPVEQSPQEPDSSAGIGKSGAQPAKKRLNFGQTGDTESVPDPQPIGEPPAAPSGVGSLTMASGGGAPVADNNEGADGVGSSSGNWHCDSQWLGDRVITTSTRTWALPTYNNHLYKQISNSTSGGSSNDNAYFGYSTPWGYFDFNRFHCHFSPRDWQRLINNNWGFRPKRLNFKLFNIQVKEVTDNNGVKTIANNLTSTVQVFTDSDYQLPYVLGSAHEGCLPPFPADVFMIPQYGYLTLNDGSQAVGRSSFYCLEYFPSQMLRTGNNFQFSYEFENVPFHSSYAHSQSLDRLMNPLIDQYLYYLSRTIDGQSSKSQTLKFSVAGPSNMAVQGRNYIPGPSYRQQRVSTTVTQNNNSEFAWPGASSWALNGRNSLMNPGPAMASHKEGEDRFFPLSGSLIFGKQGTGRDNVDADKVMITNEEEIKTTNPVATESYGQVATNHQSDGTLAVPFKAQAQTGWVQNQGILPGMVWQDRDVYLQGPIWAKIPHTDGNFHPSPLMGGFGMKHPPPQILIKNTPVPADPPTAFNKDKLNSFITQYSTGQVSVEIEWELQKENSKRWNPEIQYTSNYYKSNNVEFAVNTEGVYSEPRPIGTRYLTRNL
notes: also called AAV9.CAP-B22

Experiments:
[1] = molecular target: T1, human interleukin 3 (IL3), expressed on …; experiment: cell microarray screen hit (title of Table 4)
[2] = molecular target: T2, Mouse SCA1 (LY6A), on cells; experiment: cell microarray, individual capsids, anti-AAV9 detection
Method: To enable higher-throughput screening, the six capsids were tested as a pool. Pooled testing required additional dosage optimizing, first for the individual and then for the collective background binding levels of the included capsids (Table 5).

[3] = molecular target: T3, mouse LRP6-E1E2 (N-half, AA 20-628) …; experiment: SPR, target-Fc captured on protein A chip, AAV analyte (FIG. 20B)
[4] = molecular target: T4, mouse LRP6-E3E4 (C-half, AA 629-1244) …; experiment: as above
[5] = molecular target: T2, Mouse SCA1 (LY6A), on cells; experiment: cell microarray screen hit (membrane)
Method: After these controls, the six-capsid pool was tested in a full screen of approximately 6400 proteins, including 6000 human plasma membrane proteins and secreted and cell surface-tethered proteins, as well as approximately 400 heterodimers. […] To assign these hits to specific capsids, follow-up deconvolution screens were performed with each individual capsid from the pool (FIG. 12E). DNA oligos for the 22 identified hits, as well as the positive control CD86, were affixed in duplicate locations to new slides. A negative control condition with no AAV analyte and a positive control condition with CTLA4-Fc (CD86 binder) were also included.

Binder	binding result [1]	binding result [2]	binding result [3]	binding result [4]	binding result [5]
B1	binds	no binding			
B2	binds	no binding			
B3			binds	no binding	
B4	binds				binds
